Square brackets hold non-standard residues; d marks the D form. Primed or numbered codes have the meaning given here. Side chains are listed from the residue outwards. Ends that are not written are not given here. * marks the point of attachment. Biotin = O=C1N[C@H]2[C@H](CS[C@H]2CCCCC(=O)*)N1; PEG2(3) = PEG2 spacer carrying biotin on Lys; 1Nal = N[C@@H](Cc1cccc2ccccc12)C(=O)O; Tle = CC(C)(C)[C@H](N)C(=O)O; Nle = CCCC[C@H](N)C(=O)O; PEG2′ = PEG2 spacer unit; Aib = CC(C)(N)C(=O)O
B1: rRAAGKLTCLASYCWLAATGIA (peptide)
peptide: [dR]RAAGKLTCLASYCWLAATGIA
modifications: not fully specified (C-terminus); printed as rRAAGKLTCLASYCWLAATGIA; cysteine pairing not given here
B2: RRAPGKLQCLASYCWLFWT-Aib-IA (peptide)
peptide: RRAPGKLQCLASYCWLFWT[Aib]IA
modifications: not fully specified; printed as RRAPGKLQCLASYCWLFWT-Aib-IA; cysteine pairing not given here
B3: rRASGKLTCLASYCWLFWTGIA (peptide)
peptide: [dR]RASGKLTCLASYCWLFWTGIA
modifications: not fully specified (C-terminus); printed as rRASGKLTCLASYCWLFWTGIA; cysteine pairing not given here
B4: rRAPGKSTCLASYCWLFWTGIA (peptide)
peptide: [dR]RAPGKSTCLASYCWLFWTGIA
modifications: not fully specified (C-terminus); printed as rRAPGKSTCLASYCWLFWTGIA; cysteine pairing not given here
B5: RRAPGKLQCLASYCWLFWTG-(1-Nal)-A (peptide)
peptide: RRAPGKLQCLASYCWLFWTG[1Nal]A
modifications: not fully specified; printed as RRAPGKLQCLASYCWLFWTG-(1-Nal)-A; cysteine pairing not given here
B6: rRAAGKATCLASACW LAATGIA (peptide)
peptide: [dR]RAAGKATCLASACWLAATGIA
modifications: not fully specified (C-terminus); printed as rRAAGKATCLASACW LAATGIA; cysteine pairing not given here
B7: rRAAGKLTCLASACWLFATGIA (peptide)
peptide: [dR]RAAGKLTCLASACWLFATGIA
modifications: not fully specified (C-terminus); printed as rRAAGKLTCLASACWLFATGIA; cysteine pairing not given here
B8: rRAPGKLTCLASYCWLSWTGIA (peptide)
peptide: [dR]RAPGKLTCLASYCWLSWTGIA
modifications: not fully specified; printed as rRAPGKLTCLASYCWLSWTGIA; cysteine pairing not given here
B9: rRAPGKLTCLASYCWLFSTGIA (peptide)
peptide: [dR]RAPGKLTCLASYCWLFSTGIA
modifications: not fully specified (C-terminus); printed as rRAPGKLTCLASYCWLFSTGIA; cysteine pairing not given here
B10: RRAPGKLQCLASYCWLFWTG-Tle-A (peptide)
peptide: RRAPGKLQCLASYCWLFWTG[Tle]A
modifications: not fully specified; printed as RRAPGKLQCLASYCWLFWTG-Tle-A; cysteine pairing not given here
B11: RRAPGKLQCLASYCWLFWTG-Nle-A (peptide)
peptide: RRAPGKLQCLASYCWLFWTG[Nle]A
modifications: not fully specified; printed as RRAPGKLQCLASYCWLFWTG-Nle-A; cysteine pairing not given here

What follows are binders tested against human Factor IXa (human, UniProt P00740 47-191; P00740 227-461) (assay: cell-based or functional assay).

| EC50 [µM], FXa generation assay with hFIXa [µM] | EC50 [µM], FXa generation assay [µM] | Binder |
| --- | --- | --- |
| < 0.5 | – | R[dR]APGKLTCLASYCWLFWTGIA-NH2 (cysteine pairing not given here) [compound 6] |
| – | > 1 | RRAPGKLQCLASYCWLFWTGIK |
| – | > 10 | B1 |
| – | < 0.5 | KRAPGKLQCLASYCWLFWTGIA |
| – | > 1 | RKAPGKLQCLASYCWLFWTGIA |
| – | > 1 | B2 |
| – | < 0.5 | B3 |
| – | < 0.5 | B4 |
| – | < 0.5 | RRAPGKLQCLASYCWLFWTGLA |
| – | < 0.5 | GKLQCLASYCWLFWTGIA |
| – | > 1 | RRAKGKLQCLASYCWLFWTGIA |
| < 0.5 | – | RRAPGKLTCLAK([PEG2′-Biotin])YCWLFWTGIA-NH2 (cysteine pairing not given here) [compound 18] |
| – | < 0.5 | B5 |
| – | > 5 | RRAPGKLQCLASYCWLFWKGIA |
| – | > 5 | RRAPGKLQCLASYCWLFWTGKA |
| – | > 5 | RRAPGKLQCLASYCWLF |
| < 0.5 | – | RRAPK([PEG2(3)-Biotin])KLTCLASYCWLFWTGIA-NH2 (cysteine pairing not given here) [compound 20] |

| EC50 [µM], FXa generation assay with hFIXa [µM] | EC50 [µM], FXa generation assay [µM] | Binder |
| --- | --- | --- |
| – | > 1 | RRAPKKLQCLASYCWLFWTGIA |
| – | > 10 | RRAPGKLQCLASYCWLFKTGIA |
| – | < 0.5 | APGKLQCLASYCWLFWTGIA |
| – | > 1 | RRAPGKLQCLASYCWLFWT |
| – | > 1 | RRKPGKLQCLASYCWLFWTGIA |
| – | > 10 | B6 |
| – | > 1 | RRAPGKLQCLASYCWLFW |
| – | > 1 | B7 |
| – | > 5 | B8 |
| – | < 0.5 | B9 |
| – | < 0.5 | B10 |
| – | < 0.5 | RAPGKLQCLASYCWLFWTGIA |
| – | < 0.5 | PGKLQCLASYCWLFWTGIA |
| – | < 0.5 | RRAPGKLQCLASYCWLFWTGFA |
| – | < 0.5 | B11 |
| – | > 1 | RRAPGKLQCLASYCWLFWTG |
| – | > 1 | RRAPGKLQCLASYCWLFWTKIA |

— US20140303084A1 (Biogen, published 2014)
